{
  "source": "paper PMC11098083",
  "binders": {"B1": {"name": "58bp DNA (dsDNA)", "DNA 1": "ATACATTTTATGACTGGAAACTTTTTTGTACAACACTCCAATAAACATTTTGATTTTA", "DNA 2": "TAAAATCAAAATGTTTATTGGAGTGTTGTACAAAAAAGTTTCCAGTCATAAAATGTAT"}},
  "target": "GST-Pol32 (Saccharomyces cerevisiae (budding …, UniProt P47110 1-350))",
  "sequence (P47110 whole entry)": "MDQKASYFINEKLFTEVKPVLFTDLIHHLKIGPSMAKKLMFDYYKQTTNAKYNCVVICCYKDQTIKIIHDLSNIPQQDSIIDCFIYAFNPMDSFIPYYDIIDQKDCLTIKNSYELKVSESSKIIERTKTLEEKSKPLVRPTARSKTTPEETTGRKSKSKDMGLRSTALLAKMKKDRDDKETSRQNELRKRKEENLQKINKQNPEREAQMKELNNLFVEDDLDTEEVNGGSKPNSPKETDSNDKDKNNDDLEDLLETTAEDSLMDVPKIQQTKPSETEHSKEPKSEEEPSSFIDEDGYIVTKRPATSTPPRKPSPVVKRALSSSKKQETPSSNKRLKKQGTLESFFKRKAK",
  "assay": "EMSA",
  "data": [
    {"binder": "B1", "values": [
      {"measurement": "binding result", "result": "binds"}
    ]}
  ]
}
